This note sets out measurements from paper PMC1869045 (Journal of thrombosis and haemostasis : JTH, 2007).

This data set concerns the molecule itself. The data set can be described thus: FRET or BRET.

By stoichiometry N is commonly meant a count of units in the complex or per binding partner.

B1: GPVI BRET pair (GPVI-GFP and GPVI-luciferase) (receptor, UniProt Q9HCN6 21-339, looked up)
chain: QSGPLPKPSLQALPSSLVPLEKPVTLRCQGPPGVDLYRLEKLSSSRYQDQAVLFIPAMKRSLAGRYRCSYQNGSLWSLPSDQLELVATGVFAKPSLSAQPGPAVSSGGDVTLQCQTRYGFDQFALYKEGDPAPYKNPERWYRASFPIITVTAAHSGTYRCYSFSSRDPYLWSAPSDPLELVVTGTSVTPSRLPTEPPSPVAEFSEATAELTVSFTNEVFTTETSRSITASPKESDSPAGPARQYYTKGNLVRICLGAVILIILAGFLAEDWHSRRKRLRHRGRAVQRPLPPLPPLPLTRKSNGGQDGGRQDVHSRGLCS
As to B1, the “stoichiometry N” value turned out to be 2.
